Non-standard residues stand in square brackets, D forms with d. No end group written: not given here.
Molecular target: soluble human furin (human) (UniProt P09958)
Test: enzyme inhibition

B1: nona-D-arginine (peptide)
peptide: [dR][dR][dR][dR][dR][dR][dR][dR][dR]
Question: For B1, which Ki is on record?
Answer: 140 nM
